T1: human αE-catenin (full-length; expressed from pJ6αECTN in HEK293T cells, also endogenous in HEK293T) (human, UniProt P35221 1-906)
T1 construct: also called PJ6αECTN(37-3433); pJ6αE-catenin
T1 sequence (looked up): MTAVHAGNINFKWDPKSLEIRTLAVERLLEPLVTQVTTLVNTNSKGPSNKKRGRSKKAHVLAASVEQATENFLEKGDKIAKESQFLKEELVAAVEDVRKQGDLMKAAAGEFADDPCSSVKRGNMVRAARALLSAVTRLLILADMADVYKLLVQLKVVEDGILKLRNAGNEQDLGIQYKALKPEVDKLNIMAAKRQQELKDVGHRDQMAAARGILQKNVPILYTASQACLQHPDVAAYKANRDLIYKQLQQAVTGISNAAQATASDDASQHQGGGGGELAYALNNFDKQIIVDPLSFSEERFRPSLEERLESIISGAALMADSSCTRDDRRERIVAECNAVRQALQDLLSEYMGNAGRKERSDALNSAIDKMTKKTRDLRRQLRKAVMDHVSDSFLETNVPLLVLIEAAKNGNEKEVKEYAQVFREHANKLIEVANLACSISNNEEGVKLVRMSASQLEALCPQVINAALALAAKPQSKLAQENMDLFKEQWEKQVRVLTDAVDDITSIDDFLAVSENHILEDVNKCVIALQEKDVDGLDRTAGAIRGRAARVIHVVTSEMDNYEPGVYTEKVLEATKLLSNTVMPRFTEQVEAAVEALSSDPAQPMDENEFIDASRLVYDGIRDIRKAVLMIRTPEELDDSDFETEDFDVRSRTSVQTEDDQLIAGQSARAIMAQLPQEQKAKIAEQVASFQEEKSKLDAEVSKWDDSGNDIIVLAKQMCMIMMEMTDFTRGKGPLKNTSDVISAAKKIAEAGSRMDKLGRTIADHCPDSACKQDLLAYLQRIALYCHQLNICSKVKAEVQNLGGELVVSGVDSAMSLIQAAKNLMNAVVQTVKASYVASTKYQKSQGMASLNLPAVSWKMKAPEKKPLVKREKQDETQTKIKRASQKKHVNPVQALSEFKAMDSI

B1: ANC-2H01 initial two-hybrid clone (part of ANC-2H01 fused to the GAL4-AD, plasmid pGAD10ANC2H01) (other, not shown: large carriers)
chain: IADGFNGIFSDHCYSVCSMRQPDLKYFDNKDDDSDTETSNDLPKFADGIKARNRNQNYLVPSPVLRILDHTAFSTEKSADIVICDEECDSPESVNQQTQEESPIEVHTAEDVPIAVEVHAISEDYDIETENNSSESLQDQTDEEPPAKLCKILDKSQALNVTAQQKWPLLRANSSGLYKCELCEFNSKYFSDLKQHMILKHKRTDSNVCRVCKESFSTNMLLIEHAKLHEEDPYICKYCDYKTVIFENLSQHIADTHFSDHLYWCEQCDVQFSSSSELYLHFQEHSCDEQYLCQFCEHETNDPEDLHSHVVNEHACKLIELSDKYNNGEHGQYSLLSKITFDKCKNFFVCQVCGFRSRLHTNVNRHVAIEHTKIFPHVCDDCGKGFSSMLEYCKHLNSHLSEGIYLCQYCEYSTGQIEDLKIHLDFKHSADLPHKCSDCLMRFGNERELISHLPVHETT
notes: 27-485 is derived from 459 of 485 residues; also called ANC-2H01 clone; initial ANC-2H01 two-hybrid clone
B2: αN-catenin residues 4-193 fused to the GAL4-DBD (plasmid pGBT9ANCTN(EcoRI-BamHI)) (other, UniProt P04386 1-147, looked up)
chain: MKLLSSIEQACDICRLKKLKCSKEKPKCAKCLKNNWECRYSPKTKRSPLTRAHLTEVESRLERLEQLFLLIFPREDLDMILKMDSLQDIKALLTGLFVQDNVNKDAVTDRLASVETDMPLTLRQHRISATSSSEESSNKGQRQLTVSATSPIILKWDPKSLEIRTLTVERLLEPLVTQVTTLVNTSNKGPSGKKKGRSKKAHVLAASVEQATQNFLEKGEQIAKESQDLKEELVAAVEDVRKQGETMRIASSEFADDPCSSVKRGTMVRAARALLSAVTRLLILADMADVMRLLSHLKIVEEALEAVKNATNEQDLANRFKEFGKEMVKLNYVAARR
B3: αN-catenin residues 535-787 fused to the GAL4-DBD (plasmid pGBT9ANCTN(PstI 1618-2375)) (other, UniProt P04386 1-147, looked up)
chain: MKLLSSIEQACDICRLKKLKCSKEKPKCAKCLKNNWECRYSPKTKRSPLTRAHLTEVESRLERLEQLFLLIFPREDLDMILKMDSLQDIKALLTGLFVQDNVNKDAVTDRLASVETDMPLTLRQHRISATSSSEESSNKGQRQLTVSTLDRTAGAIRGRAARVIHIINAEMENYEAGVYTEKVLEATKLLSETVMPRFAEQVEVAIEALSANVPQPFEENEFIDASRLVYDGVRDIRKAVLMIRTPEELEDDSDFEQEDYDVRSRTSVQTEDDQLIAGQSARAIMAQLPQEEKAKIAEQVEIFHQEKSKLDAEVAKWDDSGNDIIVLAKQMCMIMMEMTDFTRGKGPLKNTSDVINAAKKIAEAGSRMDKLARAVADQCPDSACKQDLLAYLQRIALYCH

Key:
[1] = target: T2, human αN-catenin fused to the GAL4-DBD in pGBT9 (plasmid pGBT9ANCTN) (human, UniProt P04386 1-147; P26232 4-905, limits assumed); experiment: yeast two-hybrid, strain Y190 (FIG. 16)
T2 construct: Construction of pGBT9ANCTN is not described; also called pGBT9αNCTN; pGBT9-αNCTN

[2] = target: T1, human αE-catenin (full-length; …); experiment: co-immunoprecipitation from cotransfected HEK293T cells, Western blot
[3] = target: T3, human αE-catenin fused to the GAL4-DBD (plasmid pGBT9αECTN) (human, UniProt P04386 1-147; P35221 1-906, limits assumed); experiment: yeast two-hybrid, strain HF7c (FIG. 4)
T3 construct: also called full-length αE-catenin

[4] = target: B2; experiment: yeast two-hybrid (FIG. 4)
[5] = target: αN-catenin residues 4-535 fused to the GAL4-DBD (plasmid pGBT9ANCTN(EcoRI-PstI)) (human, UniProt P04386 1-147; P26232 4-535); experiment: yeast two-hybrid (FIG. 4)
[6] = target: T4, αN-catenin residues 543-906 fused to the GAL4-DBD (plasmid pGBT9ANCTN-(XhoI-SalI)) (human, UniProt P04386 1-147; P26232 543-906); experiment: yeast two-hybrid (FIG. 4)
T4 construct: the UniProt canonical isoform differs near the C-terminus

[7] = target: B3; experiment: yeast two-hybrid (FIG. 4)
[8] = target: T2, human αN-catenin fused to the GAL4-DBD …; experiment: yeast two-hybrid (FIG. 4)
[9] = target: B1; experiment: yeast two-hybrid (FIG. 4)

| binding result [1] | binding result [3] | binding result [4] | binding result [5] | binding result [6] | binding result [7] | binding result [8] | Binder | other results |
| --- | --- | --- | --- | --- | --- | --- | --- | --- |
| no binding | – | – | – | – | – | – | zinc fingers 1 to 5 of ANC-2H01 fused to the GAL4-AD (plasmid pACT2ANC2H01ZF1-5) (other, not shown: large carriers) LYKCELCEFNSKYFSDLKQHMILKHKRTDSNVCRVCKESFSTNMLLIEHAKLHEEDPYICKYCDYKTVIFENLSQHIADTHFSDHLYWCEQCDVQFSSSSELYLHFQEHSCDEQYLCQFCEHETNDPEDLHSHVVNEHACKLIELSDK | – |
| – | – | – | – | – | – | – | E-tagged full-length ANC-2H01 protein (expression plasmid pEFBOSANC-2H01E), expressed in HEK293T cells (other, also called pEFBOS-EANC-2H01; E-tagged ANC-2H01; not shown: E-tag derived from plasmid pCANTAB5E (Pharmacia), at the amino-terminal side) MNEYPKKRKRKTLHPSRYSDSSGISRIADGFNGIFSDHCYSVCSMRQPDLKYFDNKDDDSDTETSNDLPKFADGIKARNRNQNYLVPSPVLRILDHTAFSTEKSADIVICDEECDSPESVNQQTQEESPIEVHTAEDVPIAVEVHAISEDYDIETENNSSESLQDQTDEEPPAKLCKILDKSQALNVTAQQKWPLLRANSSGLYKCELCEFNSKYFSDLKQHMILKHKRTDSNVCRVCKESFSTNMLLIEHAKLHEEDPYICKYCDYKTVIFENLSQHIADTHFSDHLYWCEQCDVQFSSSSELYLHFQEHSCDEQYLCQFCEHETNDPEDLHSHVVNEHACKLIELSDKYNNGEHGQYSLLSKITFDKCKNFFVCQVCGFRSRLHTNVNRHVAIEHTKIFPHVCDDCGKGFSSMLEYCKHLNSHLSEGIYLCQYCEYSTGQIEDLKIHLDFKHSADLPHKCSDCLMRFGNERELISHLPVHETT | binding result [2]: no binding |
| – | no binding | no binding | no binding | no binding | no binding | no binding | ANC-2H01/BamHI (amino-terminal part of the ANC-2H01 clone plus two of the nine zinc fingers, fused to the GAL4-AD in pGAD10) (other, not shown: large carriers, 700-bp BamHI fragment of the initial clone; only the stated part stood in the assay; also called pGAD10ANC-2H01/BamHI) IADGFNGIFSDHCYSVCSMRQPDLKYFDNKDDDSDTETSNDLPKFADGIKARNRNQNYLVPSPVLRILDHTAFSTEKSADIVICDEECDSPESVNQQTQEESPIEVHTAEDVPIAVEVHAISEDYDIETENNSSESLQDQTDEEPPAKLCKILDKSQALNVTAQQKWPLLRANSSGLYKCELCEFNSKYFSDLKQHMILKHKRTDSNVCRVCKESFSTNMLLIEHAKLHEEDP | – |
| no binding | – | – | – | – | – | – | zinc fingers 4 to 5 of ANC-2H01 fused to the GAL4-AD (plasmid pACT2ANC2H01-ZF4-5) (other, not shown: large carriers, also called pACT2ANC2H01Zn4-5) LYWCEQCDVQFSSSSELYLHFQEHSCDEQYLCQFCEHETNDPEDLHSHVVNEHACKLIELSDK | – |
| – | no binding | – | – | no binding | – | – | B1 | – |
| – | no binding | no binding | no binding | no binding | no binding | no binding | ANC-2H01/600 (amino-terminal part of the initial ANC-2H01 plus half of the first zinc finger, fused to the GAL4-AD in pGAD10) (other, not shown: large carriers, whole entry named, only the stated part stood in the assay) IADGFNGIFSDHCYSVCSMRQPDLKYFDNKDDDSDTETSNDLPKFADGIKARNRNQNYLVPSPVLRILDHTAFSTEKSADIVICDEECDSPESVNQQTQEESPIEVHTAEDVPIAVEVHAISEDYDIETENNSSESLQDQTDEEPPAKLCKILDKSQALNVTAQQKWPLLRANSSGLYKCELCEFNSKY | – |
| no binding | – | – | – | – | – | – | zinc fingers 1 to 3 of ANC-2H01 fused to the GAL4-AD (plasmid pACT2ANC2H01ZF1-3) (other, not shown: large carriers) LYKCELCEFNSKYFSDLKQHMILKHKRTDSNVCRVCKESFSTNMLLIEHAKLHEEDPYICKYCDYKTVIFENLSQHIADTHFSDHL | – |
| – | no binding | no binding | no binding | no binding | no binding | no binding | ANC-2H01/500 (amino-terminal part of ANC-2H01 lacking any functional zinc finger, fused to the GAL4-AD in pGAD10) (other, not shown: large carriers, whole entry named, only the stated part stood in the assay) IADGFNGIFSDHCYSVCSMRQPDLKYFDNKDDDSDTETSNDLPKFADGIKARNRNQNYLVPSPVLRILDHTAFSTEKSADIVICDEECDSPESVNQQTQEESPIEVHTAEDVPIAVEVHAISEDYDIETENNSSESLQDQTDEEPPAKLCKILDKSQALNVTAQQKW | – |
| – | – | – | – | – | – | – | B2 | binding result [9]: no binding |
| – | – | – | – | – | – | – | B3 | binding result [9]: no binding |

Source: patent US6767720 (VLAAMS INTERUNIVERSITAIR INSTITUUT VOOR BIOTECHNOLOGIE VZW, dated 2004)
